The values below come from paper PMC9683001.

The subject of this data set is AMV coat protein (CP) (Alfalfa mosaic virus). The data set is described as follows: EMSA. To be noted: 10 mM Na-phosphate pH 7.0, 1 mM EDTA, 5 U human placental RNase inhibitor, 10 uL, 30 min at room temperature; RNA preheated 65 C 5 min; 1.2% agarose gel in TAE. A general note: Mobility shift assays separate free from complexed probe on a gel.

Regarding 5'UTR-WT (AMV RNA3 5' UTR, plus strand), the Kd – broadly, the equilibrium constant for the complex coming apart – was 26.1 µM.

5'UTRΔ140 registered a Kd of 41.1 µM.
